B1: MATN2 (parent)
chain: VNVPGSFVCQCYSGYALAEDGKRC
B2: SLC6A17 (parent)
chain: KAVEEELDAEDRPAWNSKLQYILA

Variants of: B1
Test: protein stability index of a GFP-peptide fusion (GPS, HEK-293T) (PSI 1-6); higher = more stable
Details: c terminus: a fixed tail appended
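Note: lentivirally expressed fusions sorted by FACS into six bins by GFP to DsRed ratio, PSI derived from sequencing read proportions per bin multiplied by bin number.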

Protein stability index of substitutions, site by site:
Y12: P 3.02; T 2.95; H 2.24; V 2.13; I 1.36; C 2.87; N 1.98; Q 1.76; A 2.73; K 1.96; D 4.36; S 2.64; R 2; F 2.54; E 3.47; W 2.62; L 2.21
R23: F 1.69; M 2.32; H 1.62; G 2.56; A 2.16; V 2.41; E 2.78; Y 1.83; T 2.06; P 2.07; L 2.62; C 2.74; I 1.67; N 2.23; K 2.99; Q 3.67; D 2.78; S 2.35; W 1.64
V8: I 2.21; H 2.34; E 2.53; K 2.74; W 3.21; T 1.96; L 2.35; D 3.89; Y 3.01; N 2.51; S 3.19; M 2.79; G 1.92; C 1.27; A 2.16; F 1.79; P 2.28; Q 2.51
A18: I 1.64; K 1.73; Q 2.38; N 2.09; S 1.93; D 2.36; L 2.32; F 2.48; C 3.33; R 2.38; E 2.56; H 2.55; P 1.65; M 1.34; T 2; G 1.82; Y 2.84
A16: T 1.93; Q 1.97; C 3.35; D 2.17; H 2.77; P 1.49; M 1.79; F 2.42; L 1.73; V 1.62; Y 1.1; I 2.11; G 2.58; K 1.91; N 1.45; S 1.84; R 1.52; W 1.05
E19: H 3.03; W 1.86; T 1.75; K 2; Y 1.7; F 1.17; R 1.51; P 1.54; I 2.77; S 1.43; D 1.76; Q 1.75; G 2.83; C 3.15; V 2.29; N 2.79; M 2.33; A 1.93
Y15: F 2.38; M 2.19; G 2.14; W 1.65; P 2.81; D 2.03; Q 1.98; S 3.02; T 2.33; N 2.19; K 1.98; A 2.56; C 2.77; I 2.23; L 2.19; E 2.5; R 2; H 1.91
C11: Q 2.94; P 2.42; Y 2.1; N 2.97; G 2.75; V 1.7; W 2.05; F 2.48; M 1.86; A 3.12; I 1.72; T 2.43; K 2.87; L 2.19; H 2.65; E 3.27; R 3.32; D 4.08
Q10: H 1.78; L 2.46; T 2.52; S 2.29; W 2.32; G 1.65; D 2.47; F 2.64; N 2.31; E 1.55; C 1.7; A 1.56; M 2.88; Y 1.97; K 1.7; R 2.01; V 2.08; P 2.15
S13: T 2.34; G 2.33; Y 1.9; P 2.47; I 1.62; R 1.85; Q 1.5; A 2.39; K 1.58; C 3.25; L 2.52; W 3.15; N 2.45; E 2.1; D 2.17; V 1.32
K22: S 1.7; N 3.34; Y 1.47; C 3.96; T 2.6; M 1.23; I 1.5; A 2.6; P 2.08; L 1.17; E 2.03; H 2.68; W 1.9; R 1.08; F 1.81; G 2.43; Q 1.49
G21: P 2.38; Q 2.75; F 1.58; R 2.08; A 2; M 3.7; W 1.3; Y 2.18; H 2.41; S 2.36; N 1.93; C 4.22; E 1.84; L 2.7; T 3.02; K 2.03; V 1.88; D 2.43; I 1.99
G14: F 2.6; P 1.78; A 2.37; E 2.91; D 1.95; M 2.52; T 1.69; Y 1.86; R 2.81; I 3.06; S 2.44; H 2.37; N 1.56; Q 1.83; K 2.7; W 1.93; L 3.03; C 2.16
D20: S 2.02; R 1.58; P 2.42; H 2.1; A 1.9; M 1.72; N 1.34; K 1.65; L 1.11; T 2.12; V 1.87; W 1.57; C 3.42; Q 1.37; G 1.48; F 2.57; I 2.81; Y 1.05; E 1.85
L17: Q 2.26; I 1.67; R 2.54; E 2.58; W 1.92; N 1.91; H 2.27; A 2.85; K 1.81; T 1.75; M 1.81; C 3.36; Y 2.44; P 2.46; S 1.57; V 2.3; G 2.04; F 1.03; D 2.51
C24: L 1.86; R 1.25; E 1.94; V 3.76; A 1.73; N 2.72; K 2.5; F 1.83; M 2.06; T 2.13; Y 2.41; H 2.9; S 2.14; I 2.22; Q 2.12; D 2.32; G 2.18
F7: W 2.48; Y 2.01
C9: Q 2.97; K 3.08; M 2.28; I 1.5; D 4.36; F 2.54; R 2.69; A 1.81; L 2.05; W 2.21; P 3.06; G 2.8; V 2.32; E 3.33; Y 2.2; N 3.12; H 2.95; T 2.52; S 3.15

Variants of: B2
Test: as above
Details: c terminus: a fixed tail appended

Protein stability index, by site and new letter:
K1: E 3.19; L 2.08; F 2.71; S 3.24; P 3.03; Y 2.05; D 2.96; Q 2.82; N 3.17; V 3.64; C 1.62; T 2.39; R 2.34; M 2.77; W 1.74; H 2.83; G 3.25; A 2.65; I 2.12
A2: D 2.65; C 2.21; F 1.93; I 2.19; H 2.24; G 2.81; K 2.46; E 1.96
